T1: CsoS4A-CsoS1A minishell (Construct 4, S4A-S1A) (Halothiobacillus neapolitanus, UniProt O85043 1-83; P45689 1-98)
T1 construct: CsoS4A, shell pentamer of H. neapolitanus; CsoS1A, major shell hexamer of H. neapolitanus; Icosahedral shells, T = 3 and T = 4 populations; also called minishells; mini-α-shells; source: E. coli TOP10, purified (sucrose cushion and gradient, HiTrap Q FF anion exchange)
T1 sequence 1: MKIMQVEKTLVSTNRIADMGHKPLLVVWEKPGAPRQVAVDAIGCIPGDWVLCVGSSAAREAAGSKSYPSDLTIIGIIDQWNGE
T1 sequence 2: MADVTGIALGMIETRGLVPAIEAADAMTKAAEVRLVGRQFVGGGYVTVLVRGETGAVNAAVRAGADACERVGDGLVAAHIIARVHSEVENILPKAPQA


How the values were obtained:
[1] = target: the molecule itself; test: cryo-EM structure; single-particle cryo-EM of purified T = 4 minishell/CsoSCA^ΔC (2.36 Å symmetry relaxed) and minishell/CsoSCA-C (3.05 Å); internal density seen at low contour, disordered
[2] = target: T1, CsoS4A-CsoS1A minishell (Construct 4, …); test: co-purification with assembled minishells (sucrose cushion and gradient, anion exchange), immunoblot; CsoSCA constructs coexpressed with minishell constructs in E. coli TOP10; minishells purified; samples normalised to CsoS1A; anti-His blot; settings: partners not purified
[3] = target: the molecule itself; test: SEC-MALS; Superdex 200 Increase 10/300 GL, 0.70 mL/min, Buffer W (100 mM Tris/HCl pH 8, 150 mM NaCl, 1 mM EDTA), room temperature; injected at 5.6 mg/mL (CsoSCA), 0.9 mg/mL (CsoSCA-N), 1 mg/mL (CsoSCA^ΔC), 1.9 mg/mL (CsoSCA-C)

Row | Binder | stoichiometry N [1] | further results
1 | CsoS4A (shell pentamer) (natural protein, Halothiobacillus neapolitanus, CsoS4A, alpha-carboxysome shell vertex protein of H. neapolitanus; also called CsoS4A pentamer; source: E. coli TOP10, expressed from the minishell construct, in purified minishells) MKIMQVEKTLVSTNRIADMGHKPLLVVWEKPGAPRQVAVDAIGCIPGDWVLCVGSSAAREAAGSKSYPSDLTIIGIIDQWNGE | 5 | –
2 | CsoS1A (the major shell hexamer) (natural protein, Halothiobacillus neapolitanus, CsoS1A, major alpha-carboxysome shell protein of H. neapolitanus; also called CsoS1A shell hexamer; source: E. coli TOP10, expressed from the minishell construct; in lysate (pull-down) and in purified minishells (cryo-EM)) MADVTGIALGMIETRGLVPAIEAADAMTKAAEVRLVGRQFVGGGYVTVLVRGETGAVNAAVRAGADACERVGDGLVAAHIIARVHSEVENILPKAPQA | 6 | –
3 | CsoSCA-His6 (CsoSCA fused to a C-terminal His6 tag) (enzyme, Halothiobacillus neapolitanus, UniProt O85042 1-514, looked up, CsoSCA of H. neapolitanus, UniProt O85042; called full-length CsoSCA in the discussion; also called full-length CsoSCA; source: E. coli TOP10, coexpressed with minishell constructs, co-purified with minishells; not shown: His6, C-terminal, kept) MNTRNTRSKQRAPFGVSSSVKPRLDLIEQAPNPAYDRHPACITLPERTCRHPLTDLEANEQLGRCEDSVKNRFDRVIPFLQVVAGIPLGLDYVTRVQELAQSSLGHTLPEELLKDNWISGHNLKGIFGYATAKALTAATEQFSRKIMSEKDDSASAIGFFLDCGFHAVDISPCADGRLKGLLPYILRLPLTAFTYRKAYAGSMFDIEDDLAQWEKNELRRYREGVPNTADQPTRYLKIAVYHFSTSDPTHSGCAAHGSNDRAALEAALTQLMKFREAVENAHCCGASIDILLIGVDTDTDAIRVHIPDSKGFLNPYRYVDNTVTYAQTLHLAPDEARVIIHEAILNANRSDGWAKGNGVASEGMRRFIGQLLINNLSQIDYVVNRHGGRYPPNDIGHAERYISVGDGFDEVQIRNLAYYAHLDTVEENAIDVDVGIKIFTKLNLSRGLPIPIAIHYRYDPNVPGSRERTVVKARRIYNAIKERFSSLDEQNLLQFRLSVQAQDIGSPIEEVASA | – | fold copurified CsoSCA, against minishells with CsoS2 [2]: ≥ 4 fold
4 | Twin-Strep-GB1-CsoSCA (Halothiobacillus neapolitanus carboxysomal carbonic anhydrase) (enzyme, CsoSCA, alpha-carboxysomal beta-class carbonic anhydrase of Halothiobacillus neapolitanus; UniProt O85042; the domain scheme runs from residue 1 to 514; Vector pETM11; TEV protease was used to remove the tags only for DLS; also called HnCsoSCA; source: Superdex 200 for cryo-EM; not shown: Twin-Strep, N-terminal, kept) NTRNTRSKQRAPFGVSSSVKPRLDLIEQAPNPAYDRHPACITLPERTCRHPLTDLEANEQLGRCEDSVKNRFDRVIPFLQVVAGIPLGLDYVTRVQELAQSSLGHTLPEELLKDNWISGHNLKGIFGYATAKALTAATEQFSRKIMSEKDDSASAIGFFLDCGFHAVDISPCADGRLKGLLPYILRLPLTAFTYRKAYAGSMFDIEDDLAQWEKNELRRYREGVPNTADQPTRYLKIAVYHFSTSDPTHSGCAAHGSNDRAALEAALTQLMKFREAVENAHCCGASIDILLIGVDTDTDAIRVHIPDSKGFLNPYRYVDNTVTYAQTLHLAPDEARVIIHEAILNANRSDGWAKGNGVASEGMRRFIGQLLINNLSQIDYVVNRHGGRYPPNDIGHAERYISVGDGFDEVQIRNLAYYAHLDTVEENAIDVDVGIKIFTKLNLSRGLPIPIAIHYRYDPNVPGSRERTVVKARRIYNAIKERFSSLDEQNLLQFRLSVQAQDIGSPIEEVASA | – | stoichiometry N [3]: 6

— publication PMC12646314, “Structure and encapsulation of carbonic anhydrase within the α-carboxysome” (Proceedings of the National Academy of Sciences of the …, 2025)
